The target in test [1] is T1, recombinant human domain 1-3His6 of the cation-independent mannose-6-phosphate receptor (human, UniProt P11717 41-467).
T1 construct: Biotinylated (NHS-PEG4-biotin) for BLI; Glycosylated; also called hDom1-3His6; hCI-M6PRD1-D3
The test is described as follows: BLI at pH 7.4, 2nd of 2 repeats.

Test [2] addresses T1, recombinant human domain 1-3His6 of the …. The test is described as follows: BLI exp 1, dissoc pH 7.4. On the procedure:
(§1) For each of the 11 anti-CI-M6PR VHHs, a biolayer interferometry (BLI) experiment was performed in which the hDom₁₋₃His₆ was biotinylated and coupled to streptavidin biosensor tips. Afterwards, the tips were incubated with serially diluted VHHs during the association phase and dissociation was performed at pH 7.4. Similarly, dissociation was performed at pH 7.0, pH 6.0 and pH 5.0 as well after regeneration of the biosensor tips. […] The anti-CI-M6PR antibody (clone 2G11) and GBP were used as positive and negative controls, respectively.
(§2) Analysis of the binding kinetics was performed using an Octet Red96 (FortéBio) device with Streptavidin SA Biosensor tips (VWR 733-2145). Therefore, 1 mL of human domain₁₋₃His₆ (0.5 mg/mL in 50 mM MES, 150 mM NaCl, pH 6.5) was incubated at room temperature for 30 minutes with EZ-Link™ NHS-PEG4-Biotin (1 mg) (Thermo Fischer A39259) and NaHCO₃ (100 mM). Biotinylated human domain₁₋₃His₆ was purified using a Zeba spin desalting Column™ (7K MWCO, 2 mL, Thermo Fischer 89890) and 1 μg/mL was used for immobilization on the Streptavidin SA Biosensor tips. The loaded tips were dipped into a particular anti-CI-M6PR VHH solution, serially diluted in kinetics buffer (0.2M NaH₂PO₄, 0.1M Na⁺ citrate, 0.01% BSA, 0.002% Tween20, pH 7.4). This was followed by dissociation of the particular anti-CI-M6PR VHH in kinetics buffer of pH 7.4, followed by regeneration in Glycine (10 mM, pH 3) and neutralisation. Same cycle was repeated but the dissociation was performed at pH 7.0, 6.0, 5.0, 4.5 and 4.0. A reference well and reference sensors were subtracted from ligand sensors afterwards and Savitsky-Golay filtering was applied on the data. Fitting of the data was performed using a 1:1 model, grouped per pH of dissociation.

Test [3] has the same target. The test is described as follows: BLI exp 2, dissoc pH 6. On the procedure: as §1
Analysis of the binding kinetics was performed using an Octet Red96 (FortéBio) device with Streptavidin SA Biosensor tips (VWR, 733-2145). To this end, 1 mL of hCI-M6PR_D1-D3 (0.5 mg/mL in 50 mM MES, 150 mM NaCl, pH 6.5) was incubated at room temperature for 30 minutes with a two-fold molar excesses of EZ-Link™ NHS-PEG₄-Biotin (Thermo Fischer, A39259) and NaHCO₃ (100 mM, pH 8.3). Biotinylated hCIMPR_D1-D3 was purified using a Zeba spin desalting column (Thermo Fischer, 89890) and protein concentration was calculated by measuring the absorbance at 280 nm (extinction coefficient 50320 M¹ cm⁻¹). Two-fold biotin-labelled antigen was loaded on the tips (2.5 μg/mL) and subsequently dipped into a particular anti-CI-M6PR VHH-containing solution (ranging from 0-100 nM). Serial VHH dilutions were made in kinetics buffer (0.2 M Na₂HPO₄, 0.1 M Na⁺ citrate, 0.01% BSA, 0.002% Tween20, pH 7.4). After association (100 sec), dissociation was conducted (500 sec) for each anti-CI-M6PR VHH in the kinetics buffer, followed by biosensor regeneration in glycine (10 mM, pH 3) and neutralisation. The same cycle was repeated with dissociation performed in kinetics buffer of pH 7.0, 6.5, 6.0, 5.5, and 5.0.
A reference well and reference sensors were subtracted from ligand sensors afterwards and Savitsky-Golay filtering was applied on the data. Fitting of the data was performed using a 1:1 model, grouped per dissociation pH.

Test [4] shares this target. The test is described as follows: BLI exp 1, dissoc pH 7. On the procedure:
as §1, §2

The target is the same in test [5]. The test is described as follows: ELISA on coated antigen, 2nd of 2 repeats. The method, then: FIGS. 4A-4B. Affinity of anti-CI-M6PR VHHs for recombinant human CI-M6PR Domain 1-3His₆ determined by ELISA. A & B. Measurements for each of the 11 anti-CI-M6PR VHHs in serial dilution binding to the coated human CI-M6PR Domain 1-3His₆ antigen. Detection was performed using an anti-VHH antibody coupled to HRP, and measured as the absorbance of the TMB substrate at 450 nm, correlating to the amount of bound VHH as plotted at the Y-axis. The Log₁₀ concentrations of the serially diluted VHHs were plotted at the X-axis. […] A & B represent replicates but using a different concentration of human CI-M6PR Domain 1-3His₆ (in (FIG. 4A): 0-0.75 μM and in (FIG. 4B): 0-1 μM).
We evaluated the affinity of the VHHs against the hDom₁₋₃His₆ using ELISA. Coated hDom₁₋₃His₆ was incubated with serially diluted VHH that was afterwards detected using an anti-VHH antibody, coupled to HRP.
(In general: ELISA stands for enzyme-linked immunosorbent assay.)

Test [6] has the same target. The test is described as follows: BLI at pH 7.4, 1st of 2 repeats. On the procedure: as §1, §2

Broadly, the Kd is the concentration at which binding is half-saturated. Broadly, the koff is the rate constant with which the complex falls apart. In general, kon refers to the rate constant with which the complex forms. What is called EC50 is the concentration at which the effect is half-maximal.

B1: anti-CI-M6PR VHH11 (VHH)
VHH: QVQLQESGGGLVQAGDSLKLSCTASGPTFSEITGGWFRQVPGKEREFVASISSTGITTYYTDSVKGRFTVSRDNAKNTMYLQMNSLKPEDTGVYYCAARSTSRSIAITVGYDYWGQGTQVTVSS
notes: His6-tagged; made in Pichia pastoris
On to B1, for which the Kd is 51 nM in test [1], 41.4 nM in test [2], 20.3 nM in test [4] and 41.4 nM in test [6]. Further, the koff in test [1] stood at 0.00391 s⁻¹; in test [2] it was 0.00317 s⁻¹; in test [3], 0.00665 s⁻¹; in test [4], 0.00394 s⁻¹; in test [6], 0.00317 s⁻¹. Also, the kon in test [1] was 76700 M⁻¹ s⁻¹; in test [2] it was 76700 M⁻¹ s⁻¹; in test [3] it was 195000 M⁻¹ s⁻¹; in test [4], 194000 M⁻¹ s⁻¹; in test [6], 76700 M⁻¹ s⁻¹. For the same molecule, the concentration giving a half-maximal response (EC50) in test [5] was determined as 30.5 nM.

B2: anti-CI-M6PR VHH10 (VHH)
VHH: QVQLQESGGGSVQAGGSLRLSCAPAGRTFSRIRMGWFRQAPGKEREFVAAISSGGLSYYADSMKGRFTISRDNAKNTVLLQMNSLEPDDTAVYYCAAVLNDYIDDYVARNPTLYDYWGQGTQVTVSS
notes: as for B1
For the molecule B2, the results for the Kd in test [1], in test [2] and in test [6] were 46.5 nM, 46.3 nM and 46.3 nM, respectively. The koff in test [1] turned out to be 0.00177 s⁻¹; in test [2] it was 0.00177 s⁻¹; in test [3], 0.00205 s⁻¹; in test [4] it was 0.00148 s⁻¹; in test [6], 0.00177 s⁻¹. In addition, the kon is 38100 M⁻¹ s⁻¹ in test [1]; 38100 M⁻¹ s⁻¹ in test [2]; 39100 M⁻¹ s⁻¹ in test [3]; 99300 M⁻¹ s⁻¹ in test [4]; 38100 M⁻¹ s⁻¹ in test [6]. Also, in test [5], the EC50 came out at 0.224 nM.

These data come from patent US20250263490A1 (VIB VZW, published 2025).
